Target: Rgps of P. gingivalis HG66 (all gingipain activity released in soluble, non-glycosylated form into media)

B1: PD_(RgpB), recombinant N-terminal prodomain of RgpB, P95493 25-229 (domain or fragment)
chain: GPLGSQPAERGRNPQVRLLSAEQSMSKVQFRMDNLQFTGVQTSKGVAQVPTFTEGVNISEKGTPILPILSRSLAVSETRAMKVEVVSSKFIEKKDVLIAPSKGVISRAENPDQIPYVYGQSYNEDKFFPGEIATLSDPFILRDVRGQVVNFAPLQYNPVTKTLRIYTEIVVAVSETAEAGQNTISLVKNSTFTGFEDIYKSVFMNYEATR
IC50 of inhibition of Rgp activity (L-BAPNA): HG66 (cell-free culture medium): 12 nM | IC50 of inhibition of Rgp activity (L-BAPNA): HG66 (whole culture): 116 nM

Reference: publication PMC3773880
